Assay results as given in US20250263448A1.

Assays:
a native host protein [1] = test: Kd determination, method not stated
a native host protein [2] = test: Kd determination, method not stated; reference wild type PmSLP-1 (SEQ ID NO 2)

Substance | Kd (a native host protein [1]) | factor by which the Kd exceeds the Kd of the native non-modified PmSLP (a native host protein [2])
modified PmSLP-1 having SEQ. ID NO: 65 (V214D mutation) | < 2 µM | > 500 fold
modified PmSLP-1 having SEQ. ID NO: 67 (E240A mutation) | < 2 µM | > 500 fold
wild type PmSLP-1 protein (SEQ. ID NO: 2) | 0.03 µM | 
